Results reported in US20230167453, “RNA APTAMERS AND USE THEREOF FOR TREATING CANCER” (Board of Regents, The University of Texas System, published 2023).

How the values were obtained:
CD5L (CD5 antigen-like) [1] = molecular target: T1, CD5L (CD5 antigen-like) (Homo sapiens, UniProt O43866 O43866:20-347); experiment: MST; PBS pH 7.4, 1 mM MgCl2, 0.05% Tween20; conditions: tags: His-tagged, Sino Biological 10791-H08H; fluorescently labeled for MST except with Cy5-S76.T; three predicted hairpins followed by single-strand ends
T1 sequence: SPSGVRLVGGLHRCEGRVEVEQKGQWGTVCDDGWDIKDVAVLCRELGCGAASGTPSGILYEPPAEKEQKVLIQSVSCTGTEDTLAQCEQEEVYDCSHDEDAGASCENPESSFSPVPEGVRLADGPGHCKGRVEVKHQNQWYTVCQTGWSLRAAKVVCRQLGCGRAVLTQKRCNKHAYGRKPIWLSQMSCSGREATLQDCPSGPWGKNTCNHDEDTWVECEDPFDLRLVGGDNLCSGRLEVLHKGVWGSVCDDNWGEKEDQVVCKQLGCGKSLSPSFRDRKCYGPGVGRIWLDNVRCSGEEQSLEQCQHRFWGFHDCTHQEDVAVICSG
Protocol: A serial dilution of S5, S47, S63 and S72 was prepared in specific buffer composed by PBS pH 7.4, 1 mM of MgCl2 and 0.05% Tween20. The highest concentration used was 18000 nM and the lowest 0.54 nM. 4 μl of each dilution step were mixed with 4 μl of the labeled molecule CD5L purified recombinant protein (Sino Biological Inc., Beijing, China) or VEGF scrambled protein used as negative control (R&D System) (constant concentration of 12.5 nM).

CD5L (CD5 antigen-like) [2] = molecular target: T1, CD5L (CD5 antigen-like); experiment: MST; 50 mM Tris-HCl pH 7.8, 150 mM NaCl, 10 mM MgCl2, 0.05% Tween-20; 2 nM Cy5-S76.T; conditions: tags: His-tagged, Sino Biological 10791-H08H; fluorescently labeled for MST except with Cy5-S76.T; label: Cy5 (MST); hairpin
Protocol: For Cy5 labeled S76.T, a serial dilution of CD5L was prepared in the buffer composed by 50 mM Tris-HCl pH7.8, 150 mM NaCl, 10 mM MgCl2, 0.05 Tween-20. The highest concentration of CD5L was 2000 nM and the lowest 0.06 nM. 4 μl of each dilution step were mixed with 4 μl of the Cy5 labeled S76 truncated (4 nM stock). The final reaction mixture, which was filled in standard capillaries, contained a respective amount of CD5L (max. conc. 1000 nM, min conc. 0.03 nM) and constant 2 nM labeled S76 truncated MST measurement was obtained using Monolith NT.115 (NanoTemper Technologies GmbH, Munich, Germany) with standard capillaries. KD was determined as described by (Stoltenburg et al., 2015).

CD5L (CD5 antigen-like) [3] = molecular target: T1, CD5L (CD5 antigen-like); experiment: MST; TBS; 1 nM labeled CD5L; conditions: tags: His-tagged, Sino Biological 10791-H08H; fluorescently labeled for MST except with Cy5-S76.T; predicted hairpin
Protocol: (§1) Regarding the three sequences of the second selection, S11 and S23 sequences were incubated with constant concentration (1 nM) of labeled CD5L purified recombinant protein (Sino Biological Inc., Beijing, China) or labeled VEGF scrambled protein used as negative control (R&D System). S11 and S23 were diluted 1:1 (from 15000 to 0.05 nM) in binding buffer (pH 7.4, 1 mM MgCl2, 0.1% Tween20). S76 sequence was diluted 1:1 in Tris-buffered saline (TBS) from 1000 nM to 0.03 nM. S76.T was labeled with Cy5 and the concentration was kept constant at 2 nM. CD5L was diluted from 2000 nM to 0.06 nM in 50 mM Tris-HCl pH 7.8, 150 mM NaCl, 0.05% Tween20. 5 μl of each dilution step were mixed with 5 μl of the labeled CD5L or VEGF. The final reaction mixture contained a respective amount of aptamer sequences and constant 1 nM labeled CD5L or VEGF.

CD5L (CD5 antigen-like) [4] = molecular target: T1, CD5L (CD5 antigen-like); experiment: MST; pH 7.4, 1 mM MgCl2, 0.1% Tween20; conditions: tags: His-tagged, Sino Biological 10791-H08H; fluorescently labeled for MST except with Cy5-S76.T; predicted hairpin
Protocol: as §1

B1: S5 (ssRNA)
RNA: AGACAAGAAUAAACGCUCAAGCGAAGGUGUGACCACAAACCACAUAAAGGCAAGGUCGCGCCGCGUUCGACAGGAGGCUCACAACAGGC
modifications: 2'-F pyrimidines
Kd (CD5L (CD5 antigen-like) [1]): 556 nM

B2: S76.T (ssRNA)
RNA: AGGUUGCAGCGUUCGACAGGAGGCUCACAACAG
modifications: 2'-F pyrimidines
Kd (CD5L (CD5 antigen-like) [2]): 10.1 nM

B3: S76 (ssRNA)
RNA: AGACAAGAAUAAACGCUCAAUUAUCGGAGAGGCCGAACAGAUACUUCGUUAGACAGGUUGCAGCGUUCGACAGGAGGCUCACAACAGGC
modifications: 2'-F pyrimidines
Kd (CD5L (CD5 antigen-like) [3]): 2.2 nM

B4: S23 (ssRNA)
RNA: AGACAAGAAUAAACGCUCAAAAAGAGAGAAGGAUAAGAACCAUCAAAAAGAGAGAGCAGAGCCAGAUUCGACAGGAGGCUCACAACAGGC
modifications: 2'-F pyrimidines
Kd (CD5L (CD5 antigen-like) [4]): 92.1 nM

B5: S11 (ssRNA)
RNA: AGACAAGAAUAAACGCUCAAUUAUCGGAGAGGCCGAACAGAUACUUCGUUAGACACCUUGCAGCGUUCGACAGGAGGC
modifications: 2'-F pyrimidines
Kd (CD5L (CD5 antigen-like) [4]): 59.2 nM
